Experimental data published in paper PMC12409746.

Target: GST (glutathione S-transferase) released from the GST-P fusion protein (S. japonicum)
Assay: SEC

GST (glutathione S-transferase) released from the GST-P fusion protein (natural protein)
stoichiometry N: 2
